Assay results: US9243034B2, “Glycogen synthase kinase-3 inhibitors” (Ramot at Tel-Aviv University Ltd., priority 2011, dated 2016)
Substitutions are numbered along the chain they refer to. In names and notes the source's numbering stands. Where a SMILES comes first, the peptide text is derived from it. Where no end group is shown, it is not given here. [ ]: non-standard residue; d: D form. The star is where a group is joined. Myristoyl = CCCCCCCCCCCCCC(=O)*; pS = N[C@@H](COP(=O)(O)O)C(=O)O

B1: F93A: GSK-3β mutant, F93 replaced by alanine, SEQ ID NO:9 (protein)
chain: MSGRPRTTSFAESCKPVQQPSAFGSMKVSRDKDGSKVTTVVATPGQGPDRPQEVSYTDTKVIGNGSFGVVYQAKLCDSGELVAIKKVLQDKRAKNRELQIMRKLDHCNIVRLRYFFYSSGEKKDEVYLNLVLDYVPETVYRVARHYSRAKQTLPVIYVKLYMYQLFRSLAYIHSFGICHRDIKPQNLLLDPDTAVLKLCDFGSAKQLVRGEPNVSYICSRYYRAPELIFGATDYTSSIDVWSAGCVLAELLLGQPIFPGDSGVDQLVEIIKVLGTPTREQIREMNPNYTEFKFPQIKAHPWTKDSSGTGHFTSGVRVFRPRTPPEAIALCSRLLEYTPTARLTPLEACAHSFFDELRDPNVKLPNGRDTPALFNFTTQELSSNPPLATILIPPHARIQAAASTPTNATAASDANTGDRGQTNNAASASASNST
modifications: GSK-3 beta, F93A mutant
B2: R92A: GSK-3β mutant, R92 replaced by alanine, SEQ ID NO:8 (protein)
chain: B1 chain with R92A, A93F
modifications: GSK-3 beta, R92A mutant
B3: K91A: GSK-3β mutant, K91 replaced by alanine, SEQ ID NO:7 (protein)
chain: B1 chain with K91A, A93F
modifications: GSK-3 beta, K91A mutant
B4: D90A: GSK-3β mutant, D90 replaced by alanine, SEQ ID NO:6 (protein)
chain: B1 chain with D90A, A93F
modifications: GSK-3 beta, D90A mutant
B5: K94A: GSK-3β mutant, K94 replaced by alanine, SEQ ID NO:10 (protein)
chain: B1 chain with A93F, K94A
modifications: GSK-3 beta, K94A mutant

What was measured:
GSK-3β = target: T1, GSK-3β (Homo sapiens, UniProt P49841); assay: In vitro kinase assay with GSK-3β in the presence of peptide inhibitor; format: biochemical; details: for Inhibition of WT-GSK-3β compared with L803: 250 μM each, FIGS. 3B, 3C
T1 construct: made in house; host or cells: HEK-293 (transient transfection, pCMV4 vector; DE-52 partial purification)
Experimental: (§1) (0.5 μCi/assay) for 15 minutes.
The ability of each peptide to inhibit GSK-3β was then determined by in vitro kinase assays as described hereinabove.

β-catenin [1] = assay: β-catenin levels in COS-7 cells, Western blot; format: cell-based; details: various concentrations, 5 hour, FIG. 6B
Experimental: In further studies, COS-7 cells were treated with L806-mts at various concentrations for 5 hour.

[2] = test system: heat shock factor-1 (HSF-1); assay: Phosphorylation of HSF-1 in COS-7 cells, Western blot; format: cell-based; details: FIG. 6C
Experimental: L806-mts-treated COS-7 cells were also tested for phosphorylation of the GSK-3 substrate heat shock factor-1 (HSF-1).

β-catenin [3] = assay: Hippocampus β-catenin levels in mice after nasal administration; format: in vivo, C57BL/6J mice; details: 60 μg peptide/mouse/day, 3 days, vs non-treated
Experimental: C57BL/6J mice (12 week old; obtained from Animal Facilities at Tel Aviv University) were treated with L803-mts or L806-mts via a nasal administration (60 μg peptide/per mouse/per day) for 3 days. Non-treated animals served as control. Brains were removed and hippocampus was homogenized in ice-cold ‘buffer G’(20 mM Tris pH 7.5, 10 mM β-glycerophosphate, 10% glycerol, 1 mM EGTA, 1 mM EDTA, 50 mM NaF, 5 mM sodium pyrophosphate, 0.5 mM orthovanadate, 1 mM benzamidine, 5 μg/ml leupeptin, 25 μg/ml aprotinin, 5 μg/ml pepstatin, and 0.5% Triton X100). Equal amounts of proteins (50 μg) were subjected to gel electrophoresis, transferred to nitrocellulose membranes, and immunoblotted with anti-β-catenin antibody. Hippocampus β-catenin levels were determined by western blot analysis as described.

F93A mutant GSK-3β = target: T2, F93A mutant GSK-3β (Homo sapiens, UniProt P49841, F93A); assay: In vitro kinase assay with F93A mutant in presence or absence of inhibitor; format: biochemical; details: FIGS. 2B, 2C
T2 construct: made in house; host or cells: HEK-293 (transient transfection, pCMV4 vector; DE-52 partial purification)
From the text: (§2) GSK-3β in the pCMV4 vector was used as the template for mutagenesis. Mutations were generated using QuickChange Site Directed Mutagenesis Kit (Stratagene, La Jolla, Calif., USA) according the manufacturer's protocols. Mutations included replacement of D90, K91, R92, F93, K94, V214 to alanine, F93 to tyrosine, and a triple mutation at residues 91-93. All constructs were sequenced to confirm the presence of desired mutations. The sequences of mutagenic oligonucleotides are available from the inventors upon request.
(§3) HEK-293 cells were grown in Dulbecco's Modified Eagle's Medium (DMEM), supplemented with 10% fetal calf serum (FCS), 2 mM glutamine, 100 units/ml penicillin, and 100 μg/ml streptomycin. HEK-293 cells were transiently transfected with indicated constructs, using calcium phosphate method as described [Ilouz et al. (2006) supra]. Cells were lysed in ice-cold buffer G (20 mM Tris-HCl, pH 7.5, 10 mM β-glycerophosphate, 10% glycerol, 1 mM EGTA, 1 mM EDTA, 50 mM NaF, 5 mM sodium pyrophosphate, 0.5 mM orthovanadate, 1 mM benzamidine, 10 μg/ml leupeptin, 5 μg/ml aprotinin, 1 μg/ml pepstatin, and 0.5% Triton X100). Cell extracts were centrifuged for 30 minutes at 15,000×g. […] In all experiments, GSK-3 mutants were expressed at levels at least 5-fold higher than levels of the endogenous GSK-3β as determined by western blot analysis. […]

[4] = test system: GSK-3β mutants Q89A, N95A, R92A, K94A and F93Y; assay: In vitro kinase assay with other GSK-3β mutants in presence or absence of inhibitor; format: biochemical, human; details: data not shown
From the text: as §2, §3

pIRS-1 = assay: In vitro kinase assay of GSK-3β mutants, substrate pIRS-1; format: biochemical; details: WT set to 100%; mean of 2-3 experiments ± SEM
Experimental: (§4) HEK-293 cells were grown in Dulbecco's Modified Eagle's Medium (DMEM), supplemented with 10% fetal calf serum (FCS), 2 mM glutamine, 100 units/ml penicillin, and 100 μg/ml streptomycin. HEK-293 cells were transiently transfected with indicated constructs, using calcium phosphate method as described [Ilouz et al. (2006) supra]. Cells were lysed in ice-cold buffer G (20 mM Tris-HCl, pH 7.5, 10 mM β-glycerophosphate, 10% glycerol, 1 mM EGTA, 1 mM EDTA, 50 mM NaF, 5 mM sodium pyrophosphate, 0.5 mM orthovanadate, 1 mM benzamidine, 10 μg/ml leupeptin, 5 μg/ml aprotinin, 1 μg/ml pepstatin, and 0.5% Triton X100). Cell extracts were centrifuged for 30 minutes at 15,000×g. Supernatants were collected, and equal amounts of proteins were boiled with SDS sample buffer and subjected to gel electrophoresis (7.5-12% polyacrylamide gel), transferred to nitrocellulose membranes, and immunoblotted with indicated antibodies. For partial purification, cells were lysed in buffer H (20 mM Tris, pH 7.3, 1 mM EGTA, 1 mM EDTA, 1 mM orthovanadate, 25 μg/ml leupeptin, 25 μg/ml aprotinin, and 25 μg/ml pepstatin A, 500 nM microcystine LR, and 0.25% Triton X100). The lysates were centrifuged at 15,000×g. The resulting supernatants were passed through DE-52 (Whatman, Maidstone, England) mini-columns that were equilibrated with buffer H. GSK-3β proteins were eluted with the same buffer containing 0.02 M NaCl. Equal amounts of proteins were used for in vitro kinase assays. In all experiments, GSK-3 mutants were expressed at levels at least 5-fold higher than levels of the endogenous GSK-3β as determined by western blot analysis.
as §1
(§5) The GSK-3β mutants were partially purified by ion exchange chromatography, and their abilities to phosphorylate peptide substrates were tested in in vitro kinase assays. The substrates were: pIRS-1, p9CREB, and pGS-1, phosphorylated peptides derived from the insulin receptor substrate-1 (IRS-1), cAMP responsive element binding protein (CREB), and glycogen synthase, respectively.
(§6) The results are presented in Table 1, as the percentage of substrate phosphorylation (indicated peptides, pIRS-1, p9CREB and pGS-1) obtained with WTGSK-3β which was set to 100%, and are mean of 2-3 independent experiments each performed in duplicates±SEM.

p9CREB = assay: In vitro kinase assay of GSK-3β mutants, substrate p9CREB; format: biochemical; details: WT set to 100%; mean of 2-3 experiments ± SEM
Experimental: as §4, §1, §5, §6

pGS-1 = assay: In vitro kinase assay of GSK-3β mutants, substrate pGS-1; format: biochemical; details: WT set to 100%; mean of 2-3 experiments ± SEM
Experimental: as §4, §1, §5, §6

[5] = test system: CREB (Ser 129) and N′IRS-1 (Ser 332); assay: Phosphorylation of CREB and N'IRS-1 in HEK-293 cells expressing GSK-3β proteins; format: cell-based; details: forskolin or PMA treated, compared with WT-GSK-3β
Experimental: The role of Phe 93 in substrate binding by employing a cellular system and protein substrates (i.e., not peptides) was further explored. To this end, the WT-GSK-3β and F93A mutant were expressed in HEK-293 cells together with GSK-3 substrates CREB or N′IRS-1 (the N-terminal region of IRS-1). Because GSK-3 requires pre-phosphorylation of its substrates, the cells were treated with forskolin to enhance CREB phosphorylation via activation of cAMP dependent kinase (PKA), or with phorbol ester (PMA) to enhance N′IRS-1 phosphorylation via activation of protein kinase C (PKC). The phosphorylation of CREB at serine 129, and N′IRS-1 at serine 332 (both GSK-3 phosphorylation sites) was then examined.
Thus, HEK293 cells were co-transfected with WT-GSK-3β or F93A plasmids together with construct coding for CREB. Cells were treated with forskolin (10 μM, 1 hour), and cell extracts were subjected to western blot analysis using anti-phospho CREB (Ser 129/133) antibody, as presented in FIG. 1D. Expression levels of CREB and GSK-3 proteins are indicated.
Similar assay was conducted using N′IRS-1 cDNA construct instead of CREB, and cells were treated with PMA (100 nM, 30 minutes). Expression levels of N′IRS-1 and GSK-3β are indicated. Results are means of three independent experiments±SEM.

T1 sequence (P49841 1-433 isoform P49841-2): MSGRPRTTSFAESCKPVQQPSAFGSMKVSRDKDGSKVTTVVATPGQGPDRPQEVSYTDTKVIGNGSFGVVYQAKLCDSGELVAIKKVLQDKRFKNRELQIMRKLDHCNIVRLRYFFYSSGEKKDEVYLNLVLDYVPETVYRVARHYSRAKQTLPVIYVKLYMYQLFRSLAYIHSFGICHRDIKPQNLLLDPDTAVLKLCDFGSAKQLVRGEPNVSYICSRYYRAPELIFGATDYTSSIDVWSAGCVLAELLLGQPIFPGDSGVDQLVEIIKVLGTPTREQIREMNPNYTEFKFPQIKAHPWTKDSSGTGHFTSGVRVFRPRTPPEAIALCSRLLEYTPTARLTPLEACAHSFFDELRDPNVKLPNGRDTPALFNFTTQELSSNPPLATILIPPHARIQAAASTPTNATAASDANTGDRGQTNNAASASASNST

Row | Molecule | Substrate phosphorylation (% of WTGSK-3β), pIRS-1 (pIRS-1) | Substrate phosphorylation (% of WTGSK-3β), p9CREB (p9CREB) | Substrate phosphorylation (% of WTGSK-3β), pGS-1 (pGS-1) | further results
1 | CCCCCCCCCCCCCC(=O)NCC(=O)N[C@@H](CCCCN)C(=O)N[C@@H](CCC(=O)O)C(=O)N[C@@H](C)C(=O)N1CCC[C@H]1C(=O)N1CCC[C@H]1C(=O)N[C@@H](C)C(=O)N1CCC[C@H]1C(=O)N1CCC[C@H]1C(=O)N1CCC[C@H]1C(=O)N[C@@H](COP(=O)(O)O)C(=O)N1CCC[C@H]1C(=O)O [L806-mts] (Myristoyl-GKEAPPAPPP[pS]P-OH; C-terminus assumed) | – | – | – | IC50 (GSK-3β): ~1 µM; Levels of β-catenin (β-catenin [1]): Elevation of β-catenin; Phosphorylation of HSF-1 [2]: Reduced phosphorylation; Hippocampus β-catenin levels (β-catenin [3]): elevation in β-catenin levels
2 | KEAPPAPPQS(p)P (KEAPPAPPQ[pS]P) [L803] | – | – | – | Inhibition of F93A mutated enzyme (F93A mutant GSK-3β): did not inhibit; Inhibition of other GSK-3β mutants [4]: inhibited all other mutants
3 | L803-mts: L803 in which myristic acid was attached to its N-terminal, cell permeable, SEQ ID NO:5 (Myristoyl-GKEAPPAPPQSP; not fully specified (residue 11)) | – | – | – | Competition with substrates pIRS-1, p9CREB, pGS-1 (GSK-3β; purified GSK-3β, 100 μM, FIG. 2A): competes with various substrates; Inhibition of F93A mutated enzyme (F93A mutant GSK-3β): did not inhibit; Inhibition of other GSK-3β mutants [4]: able to inhibit all other mutants
4 | Lys-Ala-Ala-Pro-Pro-Ala-Pro-Pro-Gln-phosphorylated Ser-Pro [PE2A] | – | – | – | Inhibition of WT-GSK-3β compared with L803 (GSK-3β): slightly impaired
5 | Lys-Glu-Ala-Pro-Pro-Ala-Pro-Pro-Ala-phosphorylated Ser-Pro [PQ9A] | – | – | – | Increase of inhibition relative to L803 (GSK-3β; 250 μM, FIG. 3B): about two-fold
6 | Lys-Glu-Ala-Pro-Pro-Ala-Pro-Pro-Pro-phosphorylated Ser-Pro [PQ9P] | – | – | – | Inhibition activity, dose-response comparative plots (GSK-3β; L803, PQ9A and PQ9P compared, FIG. 5): enhanced inhibition activity
7 | PQ9R: L803 variant, Gln 9 replaced with arginine, SEQ ID NO:14 (KEAPPAPPRSP; PQ9R synthetic peptide) | – | – | – | Inhibition of WT-GSK-3β compared with L803 (GSK-3β): non-inhibitory
8 | PQ9Y: L803 variant, Gln 9 replaced with tyrosine, SEQ ID NO:15 (KEAPPAPPYSP; PQ9Y synthetic peptide) | – | – | – | Inhibition of WT-GSK-3β compared with L803 (GSK-3β): non-inhibitory
9 | B1 | 42 ± 13 % of WTGSK-3β | 46 ± 2 % of WTGSK-3β | 13 ± 7 % of WTGSK-3β | Phosphorylation of CREB and N′IRS-1 in cells [5]: did not enhance the phosphorylation
10 | B2 | 60 ± 3 % of WTGSK-3β | 49 ± 19 % of WTGSK-3β | 41 ± 14 % of WTGSK-3β | –
11 | B3 | 140 ± 18 % of WTGSK-3β | 161 ± 5 % of WTGSK-3β | 119 ± 5 % of WTGSK-3β | –
12 | B4 | 88 ± 15 % of WTGSK-3β | 92 ± 21 % of WTGSK-3β | 83 ± 2 % of WTGSK-3β | –
13 | B5 | 52 ± 19 % of WTGSK-3β | 71 ± 4 % of WTGSK-3β | 19 ± 14 % of WTGSK-3β | –
